The target in this data set is T1, CCR2REP (Artificial Sequence, UniProt P05725 SEQ:11-173).
T1 chain: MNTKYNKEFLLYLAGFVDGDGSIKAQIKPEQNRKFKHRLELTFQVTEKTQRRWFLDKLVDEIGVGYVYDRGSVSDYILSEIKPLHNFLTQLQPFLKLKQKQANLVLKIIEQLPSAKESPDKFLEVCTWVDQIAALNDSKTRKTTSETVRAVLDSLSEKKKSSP
Briefly: cell_activity; LacZ reporter with truncated CMV promoter, HEK 293. The conditions noted are these: tags: N-terminal SV40 NLS, C-terminal Kid-1 KRAB; chain copies: 2. From the text: An E. coli beta-galactosidase (LacZ) gene was inserted into the mammalian expression vector pCI (Promega) between PstI and NotI. In this plasmid, LacZ expression is driven by a truncated CMV promoter (corresponding to the 3′ 442 bp of the canonical CMV promoter, SEQ ID NO: 47). A CCR2 recognition sequence (SEQ ID NO: 45) was then inserted at the 5′ end of this promoter (see FIG. 6A).
HEK 293 cells (1×10⁵) were transfected first with either the pCI empty vector or pCI carrying the CCR2REP gene under the control of a constitutive CMV promoter using Lipofectamine 2000 according to the manufacturer's instructions (Invitrogen). 6 hours post-transfection, transfection complexes were removed and replaced with fresh media. 24 hours post-transfection, the cells were re-transfected with the LacZ reporter plasmid using Lipofectamine 2000. As a measure of transfection efficiency, additional cells were transfected at both time points with pCI eGFP. […]
Lysates from transfected cells were subjected to a standard o-nitrophenyl-β-D-galactoside (ONPG) assay (Current Protocols in Molecular Biology. ed. V. B. Chanda. Vol. 2. 2004, John Wiley & Sons, Inc). […] The reaction was stopped with 500 μL 1M Na₂CO₃ after one hour, and the absorbance at 420 nm was measured using a NanoDrop ND-1000 spectrophotometer. β-galactosidase activity was determined using standard equations.

One molecule from patent US20140010797, “Fusion Molecules of Rationally-Designed DNA-Binding Proteins and Effector Domains” (DUKE UNIVERSITY, published 2014) can be followed below.

B1: CCR2 palindrome (dsDNA)
DNA 1: AGGCATCTCGTACGAGATGCCT
DNA 2: AGGCATCTCGTACGAGATGCCT
As for B1, the activity was around 2.6 fold repression.
